Columns and labels:
[1] = biological target: Biotinylated human BSSL (human) (UniProt P19835); test: flow cytometry displacement assay; 3.0 ug antibody, 1 ug b-hBSSL
[2] = biological target: Biotinylated human BSSL (human) (UniProt P19835); test: flow cytometry displacement assay; 2.0 ug antibody, 1 ug b-hBSSL
[3] = biological target: Biotinylated human BSSL (human) (UniProt P19835); test: flow cytometry displacement assay; 1.0 ug antibody, 1 ug b-hBSSL
[4] = biological target: Biotinylated human BSSL (human) (UniProt P19835); test: flow cytometry displacement assay; 1.5 ug antibody, 1 ug b-hBSSL
[5] = biological target: Biotinylated human BSSL (human) (UniProt P19835); test: flow cytometry displacement assay; 0.5 ug antibody, 1 ug b-hBSSL

Sequence of Biotinylated human BSSL (human) (P19835 other isoform, or with tags, fused parts or gaps): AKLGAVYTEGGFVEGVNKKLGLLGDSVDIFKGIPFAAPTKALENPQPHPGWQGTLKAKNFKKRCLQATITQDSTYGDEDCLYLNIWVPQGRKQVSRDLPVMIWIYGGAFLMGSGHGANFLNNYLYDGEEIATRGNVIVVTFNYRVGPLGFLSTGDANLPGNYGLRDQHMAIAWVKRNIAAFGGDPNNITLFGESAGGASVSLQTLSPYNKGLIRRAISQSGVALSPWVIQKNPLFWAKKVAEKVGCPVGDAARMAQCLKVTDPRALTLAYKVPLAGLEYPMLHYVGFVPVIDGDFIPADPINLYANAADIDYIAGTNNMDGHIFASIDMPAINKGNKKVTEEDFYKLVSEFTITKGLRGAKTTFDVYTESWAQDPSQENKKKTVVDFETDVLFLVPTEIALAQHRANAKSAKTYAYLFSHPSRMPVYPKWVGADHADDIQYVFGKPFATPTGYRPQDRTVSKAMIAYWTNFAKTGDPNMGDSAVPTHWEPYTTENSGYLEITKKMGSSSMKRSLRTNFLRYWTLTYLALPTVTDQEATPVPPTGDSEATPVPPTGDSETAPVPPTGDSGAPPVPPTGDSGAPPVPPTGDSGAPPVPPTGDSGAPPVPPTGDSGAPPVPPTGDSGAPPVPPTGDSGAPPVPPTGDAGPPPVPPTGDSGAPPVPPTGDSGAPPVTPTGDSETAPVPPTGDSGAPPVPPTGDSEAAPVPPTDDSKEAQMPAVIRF

percentage reduction of b-hBSSL binding to CD14+ monocytes [1]: -7%
percentage reduction of b-hBSSL binding to CD14+ monocytes [2]: -1%
percentage reduction of b-hBSSL binding to CD14+ monocytes [3]: -2%
percentage reduction of b-hBSSL binding to CD14+ monocytes [4]: -4%
percentage reduction of b-hBSSL binding to CD14+ monocytes [5]: -8%
Substance: anti-human alpha-synuclein mlgG1 (antibody)

Source: patent publication US20220267469A1
